From US20090136433A1

Molecular target: hair (human) (human)
Assay: binding test on 5 mg human hair; bound His-tagged protein detected with anti-polyhistidine peroxidase conjugate and TMB; buffer control A405 nm = 0.05

“Comparison protein YaaD from B. subtilis with His tag (from UniProt P37527 1-294)” showed an A405 nm (absorption at 405 nm) (absorption at 405 nm) of 0.12.
